According to patent publication US20230093399A1, “METHODS FOR GENERATING PLURIPOTENT STEM CELL-DERIVED BROWN FAT CELLS” (AgeX Therapeutics, Inc., priority 2013, published 2023):

Assays:
[1] = system: cell line E72; assay: Differentiation of cell line E72 in HyStem, gene expression; type: cell-based, human
Protocol: (§1) HyStem-C (BioTime, Inc. Alameda, Calif.) (BioTime, Alameda, Calif., USA) was reconstituted following the manufacturer's instructions. Briefly, the HyStem component (thiol modified hyaluronan, 10 mg) was dissolved in 1.0 ml degassed deionized water for about 20 minutes to prepare a 1% w/v solution. The Gelin-S component (thiol modified gelatin, 10 mg) was dissolved in 1 ml degassed deionized water to prepare a 1% w/v solution, and PEGDA (PEG diacrylate, 10 mg) was dissolved in 0.5 ml degassed deionized water to prepare a 2% w/v solution. HyStem (1 ml, 1% w/v) was mixed with Gelin-S (1 ml, 1% w/v) immediately before use. Pelleted cells were resuspended in recently prepared HyStem:Gelin-S (1:1 v/v) mix described above. Upon the addition of crosslinker PEGDA, the cell suspension, at a final concentration of 2.0×10^7 cells/ml, was aliquoted at 25 μl aliquot four to five times into each well of 6 well plates (Corning 3516) after partial gelation to form attached beads. Following complete gelation (20 minutes), chondrogenic medium was added to each well (i.e about 4 ml/each well of a 6 well plate). […]
The Gelin-S® component (10 mg of thiol-modified gelatin (BioTime)) is dissolved in 1.0 ml of degassed deionized water to prepare a 1% w/v solution, and polyethylene glycol diacrylate (10 mg of PEGDA) is dissolved in 0.5 ml of degassed deionized water to prepare a 2% w/v solution. […] At the desired time point, hydrogel constructs were either fixed and processed for immunohistochemical analysis or lysed using RLT (Qiagen, CA, USA) with 1% beta-mercaptoethanol for total RNA to analyze transcript expression using quantitative real-time PCR (qRT-PCR) and/or whole-genome microarray.
Total RNA was extracted directly from cells growing in 6-well plates or 10 cm tissue culture dishes using Qiagen RNeasy mini kits according to the manufacturer's instructions. RNA concentrations were measured using a Beckman DU530 or Nanodrop spectrophotometer and RNA quality was determined by denaturing agarose gel electrophoresis or using an Agilent 2100 bioanalyzer. […] The cRNA was hybridized to Illumina BeadChips, processed, and read using a BeadStation array reader according to the manufacturer's instructions (Illumina, San Diego, Calif., USA).

[2] = system: Bone marrow-derived mesenchymal stem cells (MSCs); assay: Differentiation of bone marrow-derived MSCs in HyStem-C beads, FABP4 expression; type: cell-based; details: 14 days, 50 ng/mL BMP2, or 10 ng/mL BMP4, or 100 ng/mL BMP7
Protocol: The Gelin-S® component (10 mg of thiol-modified gelatin (BioTime)) is dissolved in 1.0 ml of degassed deionized water to prepare a 1% w/v solution, and polyethylene glycol diacrylate (10 mg of PEGDA) is dissolved in 0.5 ml of degassed deionized water to prepare a 2% w/v solution. Then, HyStem (1 ml, 1% w/v) is mixed with Gelin-S (1 ml, 1% w/v) immediately before use. Pelleted cells are resuspended in the recently prepared HyStem:Gelin-S (1:1 v/v) mix described above. Upon the addition of the PEGDA cross-linker, the cell suspension, at a final concentration of 2.0×10^7 cells/ml is aliquoted (25 μl/aliquot) into six-well plates (Corning® 3516; VWR, PA, USA) after partial gelation. Following complete gelation (20 min), Differentiation Medium is added to each well. Plates were then placed in a humidified incubator at 37° C. with ambient O2 and 10% CO2, and the cells were fed three-times weekly. At the desired time point, hydrogel constructs were either fixed and processed for immunohistochemical analysis or lysed using RLT (Qiagen, CA, USA) with 1% beta-mercaptoethanol for total RNA to analyze transcript expression using quantitative real-time PCR (qRT-PCR) and/or whole-genome microarray.

[3] = system: cell line E163; assay: Differentiation of cell line E163 in HyStem, gene expression; type: cell-based, human; details: E163 passage 12; 21 days in HyStem with 10 ng/mL BMP4
Protocol: as §1

B1: BMP4: Bone Morphogenetic Protein 4, TGF-beta superfamily member (protein, UniProt P12644 293-408, looked up)
Bone morphogenetic protein 4: SPKHHSQRARKKNKNCRRHSLYVDFSDVGWNDWIVAPPGYQAFYCHGDCPFPLADHLNSTNHAIVQTLVNSVNSSIPKACCVPTELSAISMLYLDEYDKVVLKNYQEMVVEGCGCR
markers normally associated with enamel, enamelin (ENAM) and amelogenin (AMELX) ([1]; E72, HyStem in the presence of BMP4 and TGFβ3): expressed the markers normally associated with enamel
markers of endochondral ossification including COL2A1, ALPL, IBSP, and osteopontin (SPP1) ([1]; E72 passage 11, 21 days in HyStem with 10 ng/mL TGFβ3 together with BMP4 (10 ng/mL) or BMP2 (50 ng/mL)): relatively high levels
adipocyte markers FABP4 and CD36 ([1]; E72 passage 12, 21 days in HyStem with 10 ng/mL BMP4): relatively high levels
differentiation into adipocytes as evidenced by expression of FABP4 [2]: caused the differentiation of the cells into adipocytes
adipocyte markers FABP4 and CD36 and candidate BAT cell progenitor markers such as C19orf80 [3]: relatively high levels
